Laboratory results taken from the supplement of paper PMC10567573.

B1: C22orf31 (parent)
chain: YSLELGKAIKQKLWEALCSQGAIS

Variants of: B1
Assay: protein stability index of a GFP-peptide fusion (GPS, HEK-293T) (PSI 1-6); higher = more stable
Conditions: c terminus: a fixed tail appended
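Further: lentivirally expressed fusions sorted by FACS into six bins by GFP to DsRed ratio, PSI derived from sequencing read proportions per bin multiplied by bin number.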

Compared with YSLEDGKAIKQKLWEALCSQGAIS [L5D], YSLEEGKAIKQKLWEALCSQGAIS [L5E] is higher in protein stability index: 2.11 for the first, 2.21 for the second.

Going from YSLEFGKAIKQKLWEALCSQGAIS [L5F] to YSLEGGKAIKQKLWEALCSQGAIS [L5G], the protein stability index falls from 4.05 to 1.82.

Going from YSLEHGKAIKQKLWEALCSQGAIS [L5H] to YSLEIGKAIKQKLWEALCSQGAIS [L5I], the protein stability index rises from 2.19 to 3.07.

First: YSLEKGKAIKQKLWEALCSQGAIS [L5K]
Second: YSLEMGKAIKQKLWEALCSQGAIS [L5M]
The protein stability index of the first is higher: 2.64 for the first, 2.14 for the second.

Compared with YSLENGKAIKQKLWEALCSQGAIS [L5N], YSLEPGKAIKQKLWEALCSQGAIS [L5P] is higher in protein stability index: 1.59 for the first, 1.62 for the second.

Compared with YSLEQGKAIKQKLWEALCSQGAIS [L5Q], YSLESGKAIKQKLWEALCSQGAIS [L5S] is higher in protein stability index: 1.35 for the first, 1.5 for the second.

First: YSLETGKAIKQKLWEALCSQGAIS [L5T]
Second: YSLEWGKAIKQKLWEALCSQGAIS [L5W]
The protein stability index of the first is lower: 1.75 for the first, 1.96 for the second.

Going from YSLEYGKAIKQKLWEALCSQGAIS [L5Y] to YSLELAKAIKQKLWEALCSQGAIS [G6A], the protein stability index rises from 1.86 to 1.94.

Compared with YSLELCKAIKQKLWEALCSQGAIS [G6C], YSLELDKAIKQKLWEALCSQGAIS [G6D] is lower in protein stability index: 2.16 for the first, 1.9 for the second.

Going from YSLELEKAIKQKLWEALCSQGAIS [G6E] to YSLELFKAIKQKLWEALCSQGAIS [G6F], the protein stability index rises from 2.03 to 2.28.

Going from YSLELHKAIKQKLWEALCSQGAIS [G6H] to YSLELKKAIKQKLWEALCSQGAIS [G6K], the protein stability index rises from 1.59 to 1.73.

Compared with YSLELLKAIKQKLWEALCSQGAIS [G6L], YSLELNKAIKQKLWEALCSQGAIS [G6N] is lower in protein stability index: 2.97 for the first, 1.91 for the second.

Compared with YSLELPKAIKQKLWEALCSQGAIS [G6P], YSLELQKAIKQKLWEALCSQGAIS [G6Q] is higher in protein stability index: 1.36 for the first, 1.98 for the second.

First: YSLELRKAIKQKLWEALCSQGAIS [G6R]
Second: YSLELSKAIKQKLWEALCSQGAIS [G6S]
The protein stability index of the first is higher: 2.73 for the first, 1.25 for the second.

Going from YSLELTKAIKQKLWEALCSQGAIS [G6T] to YSLELWKAIKQKLWEALCSQGAIS [G6W], the protein stability index rises from 1.86 to 3.02.

Compared with YSLELYKAIKQKLWEALCSQGAIS [G6Y], YSLELGCAIKQKLWEALCSQGAIS [K7C] is lower in protein stability index: 2.27 for the first, 1.73 for the second.

Going from YSLELGDAIKQKLWEALCSQGAIS [K7D] to YSLELGEAIKQKLWEALCSQGAIS [K7E], the protein stability index falls from 2.63 to 2.34.

Going from YSLELGGAIKQKLWEALCSQGAIS [K7G] to YSLELGIAIKQKLWEALCSQGAIS [K7I], the protein stability index rises from 1.24 to 3.6.

Compared with YSLELGPAIKQKLWEALCSQGAIS [K7P], YSLELGQAIKQKLWEALCSQGAIS [K7Q] is lower in protein stability index: 2.68 for the first, 2 for the second.

First: YSLELGRAIKQKLWEALCSQGAIS [K7R]
Second: YSLELGTAIKQKLWEALCSQGAIS [K7T]
The protein stability index of the first is lower: 1.6 for the first, 2.46 for the second.

Compared with YSLELGVAIKQKLWEALCSQGAIS [K7V], YSLELGYAIKQKLWEALCSQGAIS [K7Y] is lower in protein stability index: 2.31 for the first, 2.1 for the second.

Going from YSLELGKDIKQKLWEALCSQGAIS [A8D] to YSLELGKEIKQKLWEALCSQGAIS [A8E], the protein stability index rises from 1.76 to 2.17.

Compared with YSLELGKFIKQKLWEALCSQGAIS [A8F], YSLELGKGIKQKLWEALCSQGAIS [A8G] is lower in protein stability index: 1.7 for the first, 1.63 for the second.

Compared with YSLELGKHIKQKLWEALCSQGAIS [A8H], YSLELGKIIKQKLWEALCSQGAIS [A8I] is lower in protein stability index: 2.73 for the first, 2.24 for the second.

Compared with YSLELGKKIKQKLWEALCSQGAIS [A8K], YSLELGKMIKQKLWEALCSQGAIS [A8M] is higher in protein stability index: 1.61 for the first, 2.31 for the second.

Going from YSLELGKNIKQKLWEALCSQGAIS [A8N] to YSLELGKPIKQKLWEALCSQGAIS [A8P], the protein stability index falls from 2.57 to 1.84.

Going from YSLELGKQIKQKLWEALCSQGAIS [A8Q] to YSLELGKRIKQKLWEALCSQGAIS [A8R], the protein stability index rises from 1.64 to 2.51.

First: YSLELGKSIKQKLWEALCSQGAIS [A8S]
Second: YSLELGKTIKQKLWEALCSQGAIS [A8T]
The protein stability index of the first is higher: 2.19 for the first, 1.97 for the second.

Compared with YSLELGKVIKQKLWEALCSQGAIS [A8V], YSLELGKWIKQKLWEALCSQGAIS [A8W] is lower in protein stability index: 2.75 for the first, 1.81 for the second.

Going from YSLELGKYIKQKLWEALCSQGAIS [A8Y] to YSLELGKAAKQKLWEALCSQGAIS [I9A], the protein stability index falls from 2.97 to 1.35.

First: YSLELGKACKQKLWEALCSQGAIS [I9C]
Second: YSLELGKADKQKLWEALCSQGAIS [I9D]
The protein stability index of the first is lower: 1.79 for the first, 2.39 for the second.

First: YSLELGKAEKQKLWEALCSQGAIS [I9E]
Second: YSLELGKAFKQKLWEALCSQGAIS [I9F]
The protein stability index of the first is higher: 2.97 for the first, 2.02 for the second.

Going from YSLELGKAGKQKLWEALCSQGAIS [I9G] to YSLELGKAHKQKLWEALCSQGAIS [I9H], the protein stability index rises from 1.84 to 2.07.

Compared with YSLELGKAKKQKLWEALCSQGAIS [I9K], YSLELGKAMKQKLWEALCSQGAIS [I9M] is lower in protein stability index: 2.24 for the first, 1.07 for the second.

Going from YSLELGKANKQKLWEALCSQGAIS [I9N] to YSLELGKAPKQKLWEALCSQGAIS [I9P], the protein stability index falls from 2.07 to 1.99.

Compared with YSLELGKAQKQKLWEALCSQGAIS [I9Q], YSLELGKARKQKLWEALCSQGAIS [I9R] is lower in protein stability index: 1.94 for the first, 1.87 for the second.

Going from YSLELGKASKQKLWEALCSQGAIS [I9S] to YSLELGKATKQKLWEALCSQGAIS [I9T], the protein stability index rises from 1.97 to 2.38.

First: YSLELGKAVKQKLWEALCSQGAIS [I9V]
Second: YSLELGKAYKQKLWEALCSQGAIS [I9Y]
The protein stability index of the first is lower: 2.26 for the first, 3.02 for the second.

Going from YSLELGKAIAQKLWEALCSQGAIS [K10A] to YSLELGKAICQKLWEALCSQGAIS [K10C], the protein stability index rises from 1.52 to 2.31.

Going from YSLELGKAIDQKLWEALCSQGAIS [K10D] to YSLELGKAIEQKLWEALCSQGAIS [K10E], the protein stability index rises from 1.63 to 2.55.

First: YSLELGKAIFQKLWEALCSQGAIS [K10F]
Second: YSLELGKAIHQKLWEALCSQGAIS [K10H]
The protein stability index of the first is higher: 3.08 for the first, 1.95 for the second.

First: YSLELGKAIIQKLWEALCSQGAIS [K10I]
Second: YSLELGKAIMQKLWEALCSQGAIS [K10M]
The protein stability index of the first is higher: 2.95 for the first, 2.22 for the second.

Going from YSLELGKAINQKLWEALCSQGAIS [K10N] to YSLELGKAIPQKLWEALCSQGAIS [K10P], the protein stability index falls from 2.54 to 2.27.

Compared with YSLELGKAIQQKLWEALCSQGAIS [K10Q], YSLELGKAIRQKLWEALCSQGAIS [K10R] is lower in protein stability index: 2.64 for the first, 1.15 for the second.

Going from YSLELGKAIYQKLWEALCSQGAIS [K10Y] to YSLELGKAIKAKLWEALCSQGAIS [Q11A], the protein stability index rises from 1.9 to 2.47.

Going from YSLELGKAIKFKLWEALCSQGAIS [Q11F] to YSLELGKAIKGKLWEALCSQGAIS [Q11G], the protein stability index falls from 3.62 to 3.21.

Compared with YSLELGKAIKIKLWEALCSQGAIS [Q11I], YSLELGKAIKPKLWEALCSQGAIS [Q11P] is lower in protein stability index: 1.75 for the first, 1.36 for the second.
